These results are taken from the domain aggregation screens of Martell et al. (2025).

This data set can be described thus: soluble fraction after stress (log2 fold change); higher = more stays soluble; pooled small domains, quantitative proteomics. Conditions: stress: 75 degC.
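Also: 20 min heating vs room temperature control held 20 min.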

Take “HMNLSNVVIRKVQEMILSGELQEGDKLPPEREMTQRLGIGRPALREGLKSLEMLGLVERRHGLGNFIINKV”: the “soluble fraction (log2)” value is -1.05.

With “HMNLSPADFSSVRNALGLSLSTVAKESGINRNYLSNFEKKKHFLEETAKVKLRDYYMSIDPDAFAAAL”, the “soluble fraction (log2)” value is -0.408.

In the case of “HMNLVGGKINSLMTTKNVTIQDLSERSGLTVSQIELLLSGDKVPSLAVLIKIARGLGVRVGTFL”, the “soluble fraction (log2)” value was -1.12.

Regarding “HMNLVRQHTDYAFRLLVALSQAPGKPISTRTLASAADVPYQFASKIMQKLHEEGLVESVMGPFGGFRLVQ”, the “soluble fraction (log2)” value was -3.15.

In the case of “HMNLWIDNTQVINDWTEGASERSGSIYLTAGVKPIKMQYFDSVLNAKAILRWQGPGINKSVVPSSALTPG”, the “soluble fraction (log2)” value was -1.14.

As for “HMNMEDIADKIGRLYDNLPDDLKLMIKYRDIDDMTYDEIARKANLPIGTVRSRLHRARDILLREI”, the “soluble fraction (log2)” value is -1.07.

On to “HMNMFGIQRRNHLLSLLQEKKSITVQEAAVIFEVAEETIRRDFRTMEGQGLIVRTHGGALLADD”, for which the “soluble fraction (log2)” value is -4.21.

Turning to “HMNMMIIHVNGEKYSFQEPITISELILKLELDSRKIAIEYNLEILPRSLFEITSIKNGDKIEIVHFI”, the “soluble fraction (log2)” value is -3.43.

“HMNMPYGTVKWFNDAKGFGFIAPEDGSADVFVHFSAINSKGFRSLQEGQRVSYEVTTGPKGAQAAGVTPVT”: the “soluble fraction (log2)” value is -0.234.

For “HMNMYTVTGRLVDQDGVPQANALVTIDSSSQQTRTSPQGFYLIKVFGTEPSTIKFLVDGYDPQIVNFTP”, the “soluble fraction (log2)” value was -0.466.

Regarding “HMNNDIDRVFAELTVLSQKKGYLVFDDIEKGTEDLSVNEVDWLTNRLLTSGVEIFDDVPDTIK”, the “soluble fraction (log2)” value is 0.347.

As to “HMNNDSQYLATLQRYYAEHRVLPSYARMLPLLGFASKAAVKKVLERLEVVGMLERTEDGDWAPSERFFER”, the “soluble fraction (log2)” value is -2.24.

With “HMNNGYSINEIAKLMKMTLKVVRRYVASGELKTTKTNNTYSISEEAFNEFKKYIEEGGDAKHAQEVADTFK”, the “soluble fraction (log2)” value is -1.09.

With “HMNNIGENIKKYRTKQGLSQEDFAKKSGVKYTTLTKIESGVIKKPSVLVMAKIAKALGVNIEELI”, the “soluble fraction (log2)” value is -1.64.

Regarding “HMNNIINEAQIKQWVEEFYLSVSPRPTRATMIALVHKKIKEETKDGEEGQTVSETLINNFYTALEKEHKRK”, the “soluble fraction (log2)” value is 0.216.

As to “HMNNIPFIITDERLNVIQSHLVPREVLDHPDRLRRQIDRFTEENQPKTVNYWWGPEHRHIIFYGKSK”, the “soluble fraction (log2)” value came out at 0.377.

Consider “HMNNIYFSPVVEENNKGLRLDKFLAASFPEFSRSQLQRLILEGNVSNDDVVIADNSQKVRVGDSFQVIVPE”, for which the “soluble fraction (log2)” value was -0.018.

Turning to “HMNNKSDLLFNHLRQRIATMENGTIFPSVRQLMTEYNVSQSTVSTAIRSLKELGLLEALSRQGMVVRKE”, the “soluble fraction (log2)” value was -1.15.

As to “HMNNLGSKIKELRIAENLTQEKLAEELNVSFQSISRWENGISTPDISLIPAIARFFGVSTDYLFGLQD”, the “soluble fraction (log2)” value was -1.82.

“HMNNLPDFIKQLRKENNLTQEYVASEIGVSRPTYEQIEKGKRELTISEAEKLAKIFNIPLENFLQGKKGV”: the “soluble fraction (log2)” value was determined as 0.122.

In the case of “HMNNPLPDLLKYFRKKKHLTQEQVAKQLSVSRASYASYETGRIIPGMQHIMELSRILEHDFLFAYTLAVQ”, the “soluble fraction (log2)” value is -2.41.

“HMNNPNFAIQKYVTGSDIKRVRKTLRLTQKKFAELVGVSKATMERWETKEDKITGPVVLLLKILEDHPEY”: the “soluble fraction (log2)” value is -1.55.

In the case of “HMNNQKATAVKVASGIVNLRSGPATSYETLDTVATGETLSVLAEKDGWFQVSRAGRTGWVAGWVVDVIRE”, the “soluble fraction (log2)” value is -0.499.

Take “HMNNSSIGERLKYQRKIKGYSQEELADRTNVTVRTIQRIEKEEVSPHLNTIKLLAIALDIEVDELVAL”: the “soluble fraction (log2)” value was -2.68.

For “HMNNSVAYSTFLNDIRTNTLKDVDMTSNSETINVTKKDGTKYQTVMPMYDRDLLADLSKTDATVTGQP”, the “soluble fraction (log2)” value is 0.562.

In the case of “HMNNTIKFSVDIKNSGKRLDIFLSENVTQYTRSYLKRLIENSHVKLNNKILNSPSTKVKFQDQIIINNIE”, the “soluble fraction (log2)” value was -2.88.

As to “HMNNTIKFSVDTTNSGKRLDIFLAENIKQFTRSYLKKIISNNQVKLNNLVANSPSIKVKHSDLILINILE”, the “soluble fraction (log2)” value was -2.75.

With “HMNNTVLSSVKSINMFLDANGGDAGQAFRIYNNTNPDSNPTESTYIFKVAEDGNTFVKGYLNLNGTTL”, the “soluble fraction (log2)” value is -0.267.

As to “HMNNVRIEHIDTIGTVRLHKKRGVKRVSLRIHQSGEIRVTQPLYLPFSAGVLFAKSHTEWIMKQKQK”, the “soluble fraction (log2)” value came to 0.0763.

“HMNNWRRSLEREVTASLARGDRDIFDGLNRSFEAALITKALEHTGGRRIEAATLLGIGRNTLTRKIQDLGL”: the “soluble fraction (log2)” value was -2.11.

Consider “HMNNYEGIVKSVSNSNVYIQVAGRTIGYTISPHTIIMVNGKNVPASELMPGQHVSYTNKGSKLSYININS”, for which the “soluble fraction (log2)” value is -1.17.

As for “HMNNYFPAYKGSATSIAPALKQMGVNNSYAYRSKIAAVNNITGYRGTPAQNTQMLNLLKQGRLIK”, the “soluble fraction (log2)” value was determined as 0.349.

Regarding “HMNNYNDSVQKIINYIADNLNENLSVRKLADKMPMSVSHFNRVFQKYTGDSPYAYVMAMRIKKAKYL”, the “soluble fraction (log2)” value was -0.157.

As to “HMNPAIYIRKNILNLTQEKLSEYLDVTQPTIHRWEESGVIPAKHQRQIREFASEKGIYWNDSWFFSIPDE”, the “soluble fraction (log2)” value was -1.53.

Take “HMNPDMIAGVLKVPAAAGRLRSALFELGVVDDESYDDDGASRLTVTASQSDLERIVAQAGLVFEDVLVERR”: the “soluble fraction (log2)” value is -0.142.

Consider “HMNPEAFIQTLKQILSTYEKNDPIYLQEIKADLVKKFRIEIPINALETYLKENGYSNIYLKR”, for which the “soluble fraction (log2)” value was -0.168.

In the case of “HMNPEDLSGVRKAAILLLTMDDEVTKDVMKGLDEEEIEAIGKEITNLKLIPDHVVHRVQEEFMTKVSK”, the “soluble fraction (log2)” value was determined as 0.107.

With “HMNPESRRSELIDAATKLFFSRGYTATSIRDILDAVDDRTASPSVFYYYFESKEAIYQAVLQRYTD”, the “soluble fraction (log2)” value is -2.

Regarding “HMNPETPAQQAVRKRLIVSVQFYRRLKDTPLKAVWQVAARDTLVNGYNLFLKRNIHAFNDRTLSTPSALS”, the “soluble fraction (log2)” value is -0.0445.

For the sequence “HMNPFPDNTAEVLSQFKNIIVPELNTGQLSKLLRARYLVDTVGINKVEGLPFTAQELEEKIESLINSF”, the “soluble fraction (log2)” value is -0.428.

“HMNPGQIIRKLRQDQGMTLAVLAKYANLDPGNLSRIERDDLNISFNLLEKLSLILNVSPIVFFH”: the “soluble fraction (log2)” value was -0.119.

Turning to “HMNPLSELSFEERRELFLEAAVRLFEEKGYKNTSVEDIAGELGFTKKVFYYYWKNKREIVQEIHDRGMA”, the “soluble fraction (log2)” value is -0.594.

As for “HMNPNFIEVSHGRLRVNVPLSAYEGTTYHIKPEEAEKLKRTLASRYPWLTPNALKVFIEEAEQAMRERIQ”, the “soluble fraction (log2)” value was -0.403.

As to “HMNPSKEFNMSDLLKAKMVGDVSAAKRREKAGALLHIGYGNAKTFLKKLNHFSISREEWDKVIAAMEEF”, the “soluble fraction (log2)” value is -1.26.

In the case of “HMNPSVSSDERILLQKALGILSAEQKQIVMLHAVAGIKHREIAKLLDMPIATVLSKYSRAVNKLRHAMEA”, the “soluble fraction (log2)” value was -0.456.

As to “HMNPTTDFFKLEGIDATRILVFDQVGRQVAQFSQPAQQMDIQALPAGVYALRIENADGQVYSARIVK”, the “soluble fraction (log2)” value was -0.231.

Consider “HMNPVVATTIILDGEIIKDNLAEANLSEEWLLEELKRQNFNDVKEVFYAEWLDGKQLFAYPYTK”, for which the “soluble fraction (log2)” value was -0.537.

Take “HMNQDIIEIGNNIQKIRKKNGISQSVLAEKIDVAGNSIYRMEGATTVMGVDKLINIADALNTSPMDILPAR”: the “soluble fraction (log2)” value amounted to 0.0791.

For the sequence “HMNQDMINFDKLSVRLKNVLIENNLKTVDSLLNYPAEEFEYLTNLGEKTLQELLTYRNELAASNNIQ”, the “soluble fraction (log2)” value is -0.51.

Turning to “HMNQGKLIEMLQEMKEIAHSQNNYLTKNEIANYLGDTVLSKEQLQAVYHYLGENHIEVEGYVYIP”, the “soluble fraction (log2)” value is ≥ 1.04.
